Reference: patent US20260224711A1, “ENHANCING BRAIN PERMEABILITY AND ACTIVITY OF GLUCOSYLCERAMIDASE (GCase) PROSNA FOR NEURODEGENERATIVE DISEASES” (NORTHWESTERN UNIVERSITY, priority 2023, published 2026)
“Also recorded” adds a separate entry of the source. Read-outs that look alike come from different tables or passages of the source.

T1: GCase ProSNA constructs (Homo sapiens, UniProt P04062)
T1 sequence (P04062 40-536): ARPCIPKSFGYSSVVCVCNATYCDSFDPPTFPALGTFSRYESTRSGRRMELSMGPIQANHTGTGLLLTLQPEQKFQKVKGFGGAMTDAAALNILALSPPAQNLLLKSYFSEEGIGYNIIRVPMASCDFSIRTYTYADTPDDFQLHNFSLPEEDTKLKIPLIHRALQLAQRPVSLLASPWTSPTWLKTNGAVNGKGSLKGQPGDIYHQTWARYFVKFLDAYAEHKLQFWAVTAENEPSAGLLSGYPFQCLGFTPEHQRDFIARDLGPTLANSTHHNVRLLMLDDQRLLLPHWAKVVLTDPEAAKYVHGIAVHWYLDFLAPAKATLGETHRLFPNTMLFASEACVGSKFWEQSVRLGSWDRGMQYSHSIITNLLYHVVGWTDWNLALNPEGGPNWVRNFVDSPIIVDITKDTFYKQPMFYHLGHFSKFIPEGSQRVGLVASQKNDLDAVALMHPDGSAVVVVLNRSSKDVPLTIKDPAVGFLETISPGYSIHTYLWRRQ

T2: GCase (Homo sapiens, UniProt P04062)
T2 construct: purchased GenScript; host or cells: CHO expression system
T2 sequence (P04062 40-536): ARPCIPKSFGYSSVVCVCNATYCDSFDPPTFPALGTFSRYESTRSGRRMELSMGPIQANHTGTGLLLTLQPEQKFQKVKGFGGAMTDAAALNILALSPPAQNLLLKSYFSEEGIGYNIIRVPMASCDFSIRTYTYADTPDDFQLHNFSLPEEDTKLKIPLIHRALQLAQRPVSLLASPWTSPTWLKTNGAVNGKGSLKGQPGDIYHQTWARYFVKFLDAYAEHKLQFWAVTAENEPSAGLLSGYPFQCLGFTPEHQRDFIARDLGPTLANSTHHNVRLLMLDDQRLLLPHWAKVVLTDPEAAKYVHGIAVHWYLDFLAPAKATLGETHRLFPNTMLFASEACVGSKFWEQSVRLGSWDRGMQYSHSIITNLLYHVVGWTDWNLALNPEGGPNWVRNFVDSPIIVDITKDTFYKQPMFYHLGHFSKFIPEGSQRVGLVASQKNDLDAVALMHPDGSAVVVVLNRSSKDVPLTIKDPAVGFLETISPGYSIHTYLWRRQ


Legend:
GCase ProSNA constructs = biological target: T1, GCase ProSNA constructs; conditions: co-incubation / co-assembly of activator with GCase ProSNA construct
Description: Next, the assay is repeated with generated GCase ProSNA constructs to investigate whether some of the activity lost during activation can be recovered.

[1] = tested on: α-synuclein protein aggregates; conditions: cited from earlier work
native GCase protein = native GCase protein (Homo sapiens, UniProt P04062); conditions: GCase 1.9 mg/mL, quetiapine introduced 30 minutes prior to substrate, FIG. 10
Protocol: The purpose behind enzyme replacement therapy (ERT) is to replace protein that is either absent or dysregulated. […] This assay was completed using the same fluorometric kit described above, with quetiapine being introduced 30 minutes prior to the GCase substrate.

[2] = tested on: Human endothelial cells cultured alone or with microglial and astrocyte cells on a transwell membrane
Protocol: The ability of the construct to pass the BBB is also assessed. […] To investigate this an in vitro transwell model of transcytosis is used. Human endothelial cells are cultured alone or in concert with microglial and astrocyte cells on a transwell membrane. Once confluent, the constructs are added to the apical side of the insert and their transcytosis through the cell monolayer to the basolateral side of the insert is quantified by fluorescence.

GCase = biological target: T2, GCase; test: fluorometric GCase activity assay kit (Abcam) on GCase constructs; type: biochemical; conditions: constructs at 0.24 mg/mL, GCase substrate 30 minutes at 37° C., FIG. 9; for protein activity after functionalization, compared with unmodified GCase: fluorescence Ex/Em=360/445
Protocol: Upon interaction with active GCase, this substrate releases a fluorophore detectable using a plate reader at Ex/Em=360/445 nm.
Following the synthesis process, a comprehensive investigation into the impact of synthesis on protein activity was conducted. To assess this, we employed a fluorometric GCase activity assay kit (Abcam), using a synthetic substrate-4-Methylumbelliferyl β-D-glucopyranoside. Upon interaction with active GCase, this substrate releases a fluorophore detectable using a plate reader at Ex/Em=360/445 nm. The focus extended to evaluating the effects of PEGylation on GCase, along with modifications involving univalent (sole presence of the transferrin aptamer) or bivalent (co-presence of both transferrin and folate) DNA ligands. By using the protocol outlined in this assay, the aim was to understand and analyze the variations in protein activity resulting from these modifications. Briefly, GCase constructs (all at 0.24 mg/mL) were reacted with GCase substrate for 30 minutes at 37° C. They were then measured for fluorescence intensity at Ex/Em=360/445. […] This was a key finding as PEGylation is currently one of the most used methods to improve protein delivery.

[3] = tested on: neurons (dopaminergic), astrocytes, and microglia; test: flow cytometry uptake into neuronal cell types; type: cell-based
Description: The ability of the GCase ProSNA constructs to be taken up into cells will be assessed. To investigate their uptake potential, flow cytometry is used as a method for determining the percent uptake of the constructs compared to control groups (unmodified GCase protein, linear bivalent DNA ligand, GCase-Transferrin aptamer, and GCase-Folic Acid). Constructs are synthesized as described previously, including the fluorescent tagging the GCase protein core as well as including a Cyanine3 dye into the aptamer sequence (Folate-SEQ ID NO: 1-Cy3-DBCO dT). Once prepared, the constructs are used to treat different mono-populations of different neuronal cell types, including neurons (dopaminergic), astrocytes, and microglia, to evaluate their uptake ability. In all cases, a live dead stain is used to determine percent uptake in viable populations. Furthermore, uptake across different time points is assessed to determine the rates at which the constructs are endocytosed and processed by the different cell types.

[4] = mouse, in vivo
Protocol: Fluorescently labeled constructs are administered to mice by different routes of injection including intravenously by way of retroorbital or tail vein injection, as well as intrathecally. At set time points the mice are imaged using IVIS to track the biodistribution patterns.

| protein activity, PEGylated protein versus ProSNA constructs (GCase) | Molecule | GCase activity of ProSNA constructs with small molecule activator (GCase ProSNA constructs) | protein activity after functionalization, compared with unmodified GCase (GCase) | protein activity, univalent versus bivalent constructs (GCase) | also measured |
| --- | --- | --- | --- | --- | --- |
|  | Nc1c(Br)cc(Br)cc1CN[C@H]1CC[C@H](O)CC1 [Ambroxol] | elevation in enzyme activity; also recorded: partial recovery of GCase activity |  |  |  |
|  | OCCOCCN1CCN(C2=Nc3ccccc3Sc3ccccc32)CC1 [quetiapine] | elevation in enzyme activity; also recorded: partial recovery of GCase activity |  |  | presence of α-synuclein protein aggregates [1]: reduce the presence of α-synuclein protein aggregates; activity of the native GCase protein (native GCase protein; 5 μM quetiapine): sufficient to increase the activity of the native protein; activity of the native GCase protein (native GCase protein; 10 μM quetiapine): sufficient to increase the activity of the native protein |
| significant increase in activity | Bivalent ProSNA: GCase protein functionalized with the bivalent ligand (folate modified transferrin aptamer), roughly 14-18 ligands per protein (conjugate, UniProt P04062 40-536, looked up, folate-modified transferrin aptamer shell, 14-18 ligands, GCase protein functionalized with the bivalent ligand (folate modified transferrin aptamer), roughly 14-18 ligands per protein) Lysosomal acid …: ARPCIPKSFGYSSVVCVCNATYCDSFDPPTFPALGTFSRYESTRSGRRMELSMGPIQANHTGTGLLLTLQPEQKFQKVKGFGGAMTDAAALNILALSPPAQNLLLKSYFSEEGIGYNIIRVPMASCDFSIRTYTYADTPDDFQLHNFSLPEEDTKLKIPLIHRALQLAQRPVSLLASPWTSPTWLKTNGAVNGKGSLKGQPGDIYHQTWARYFVKFLDAYAEHKLQFWAVTAENEPSAGLLSGYPFQCLGFTPEHQRDFIARDLGPTLANSTHHNVRLLMLDDQRLLLPHWAKVVLTDPEAAKYVHGIAVHWYLDFLAPAKATLGETHRLFPNTMLFASEACVGSKFWEQSVRLGSWDRGMQYSHSIITNLLYHVVGWTDWNLALNPEGGPNWVRNFVDSPIIVDITKDTFYKQPMFYHLGHFSKFIPEGSQRVGLVASQKNDLDAVALMHPDGSAVVVVLNRSSKDVPLTIKDPAVGFLETISPGYSIHTYLWRRQ |  | functionalization does impact protein activity; also recorded: reduction of overall activity | no significant difference between the univalent and bivalent variations; also recorded: no significant difference between the uni- and bivalent constructs | rate of transcytosis across the blood-brain barrier [2]: significant increase in the rate of transcytosis across the blood-brain barrier was observed; rate of transcytosis compared to control groups [2]: higher rate of transcytosis when compared to control groups; rates of uptake across time points ([3]; different time points): highest at shorter time points; uptake into cells compared to control groups ([3]; neurons (dopaminergic), astrocytes, microglia, flow cytometry): enhance its uptake into all cell types; biodistribution (localization to the brain space) [4]: localize to the brain space in higher concentrations when compared to control groups |
| significant increase in activity | Univalent ProSNA: GCase protein functionalized with only the transferrin aptamer (conjugate, UniProt P04062 40-536, looked up, transferrin aptamer DNA shell) Lysosomal acid …: ARPCIPKSFGYSSVVCVCNATYCDSFDPPTFPALGTFSRYESTRSGRRMELSMGPIQANHTGTGLLLTLQPEQKFQKVKGFGGAMTDAAALNILALSPPAQNLLLKSYFSEEGIGYNIIRVPMASCDFSIRTYTYADTPDDFQLHNFSLPEEDTKLKIPLIHRALQLAQRPVSLLASPWTSPTWLKTNGAVNGKGSLKGQPGDIYHQTWARYFVKFLDAYAEHKLQFWAVTAENEPSAGLLSGYPFQCLGFTPEHQRDFIARDLGPTLANSTHHNVRLLMLDDQRLLLPHWAKVVLTDPEAAKYVHGIAVHWYLDFLAPAKATLGETHRLFPNTMLFASEACVGSKFWEQSVRLGSWDRGMQYSHSIITNLLYHVVGWTDWNLALNPEGGPNWVRNFVDSPIIVDITKDTFYKQPMFYHLGHFSKFIPEGSQRVGLVASQKNDLDAVALMHPDGSAVVVVLNRSSKDVPLTIKDPAVGFLETISPGYSIHTYLWRRQ |  | functionalization does impact protein activity | no significant difference between the univalent and bivalent variations; also recorded: no significant difference between the uni- and bivalent constructs |  |

| Molecule | protein activity, PEGylated protein versus ProSNA constructs (GCase) | GCase activity of ProSNA constructs with small molecule activator (GCase ProSNA constructs) | protein activity after functionalization, compared with unmodified GCase (GCase) | protein activity, univalent versus bivalent constructs (GCase) | also measured |
| --- | --- | --- | --- | --- | --- |
| PEGylated protein: GCase after PEGylation, comparator in the activity assay (conjugate, UniProt P04062 40-536, looked up, PEGylated) Lysosomal acid …: ARPCIPKSFGYSSVVCVCNATYCDSFDPPTFPALGTFSRYESTRSGRRMELSMGPIQANHTGTGLLLTLQPEQKFQKVKGFGGAMTDAAALNILALSPPAQNLLLKSYFSEEGIGYNIIRVPMASCDFSIRTYTYADTPDDFQLHNFSLPEEDTKLKIPLIHRALQLAQRPVSLLASPWTSPTWLKTNGAVNGKGSLKGQPGDIYHQTWARYFVKFLDAYAEHKLQFWAVTAENEPSAGLLSGYPFQCLGFTPEHQRDFIARDLGPTLANSTHHNVRLLMLDDQRLLLPHWAKVVLTDPEAAKYVHGIAVHWYLDFLAPAKATLGETHRLFPNTMLFASEACVGSKFWEQSVRLGSWDRGMQYSHSIITNLLYHVVGWTDWNLALNPEGGPNWVRNFVDSPIIVDITKDTFYKQPMFYHLGHFSKFIPEGSQRVGLVASQKNDLDAVALMHPDGSAVVVVLNRSSKDVPLTIKDPAVGFLETISPGYSIHTYLWRRQ | significant increase in activity when comparing the PEGylated protein to both ProSNA constructs |  |  |  |  |
